The target of this assay is T1, WDR43 (human, UniProt Q15061 1-677, limits assumed).
T1 construct: Called a core transcriptional assembly factor at TSS; Endogenous protein from lysate
T1 sequence (looked up): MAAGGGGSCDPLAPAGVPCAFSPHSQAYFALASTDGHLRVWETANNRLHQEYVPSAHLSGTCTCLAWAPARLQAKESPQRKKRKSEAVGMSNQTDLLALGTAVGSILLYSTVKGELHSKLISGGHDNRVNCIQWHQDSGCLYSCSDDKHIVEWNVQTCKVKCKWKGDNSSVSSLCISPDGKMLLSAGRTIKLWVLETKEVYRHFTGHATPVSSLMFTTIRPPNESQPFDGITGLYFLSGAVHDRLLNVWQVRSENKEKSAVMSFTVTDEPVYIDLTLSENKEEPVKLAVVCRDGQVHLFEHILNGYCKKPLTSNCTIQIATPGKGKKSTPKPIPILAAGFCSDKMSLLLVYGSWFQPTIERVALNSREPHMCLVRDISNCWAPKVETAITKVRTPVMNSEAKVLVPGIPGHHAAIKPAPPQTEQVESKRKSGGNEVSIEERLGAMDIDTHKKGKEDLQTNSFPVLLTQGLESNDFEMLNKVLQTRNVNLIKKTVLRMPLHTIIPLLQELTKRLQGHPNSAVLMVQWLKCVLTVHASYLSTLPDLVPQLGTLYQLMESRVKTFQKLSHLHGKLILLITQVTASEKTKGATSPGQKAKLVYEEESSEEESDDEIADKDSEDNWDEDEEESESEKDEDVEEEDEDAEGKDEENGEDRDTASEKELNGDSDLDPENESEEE
In words: co-immunoprecipitation of ectopically expressed HA-tagged RIOK2 with monoclonal anti-HA antibody beads, then LC-MS/MS; spectral counts normalised to the immunoprecipitated HA-RIOK2, fold change with respect to WT. How it is done:
For collection of cellular lysates, lysis was similarly performed as described above. 5% of the supernatant was saved as Input, and pre-washed monoclonal anti-HA antibody tagged-agarose beads slurry (A2095, Sigma Aldrich) was added to the rest of the supernatant and incubated at 4° C. on a rocker O/N. The beads were washed with RIPA lysis buffer, resuspended in 2× laemmli buffer, boiled at 95° C. for 10 minutes, and immediately loaded for SDS-PAGE separation. Electrophoresis was performed until the proteins ran 1/6th of the entire gel size. The gel was Coomassie stained for 1 h at 25° C., de-stained at 4° C. O/N, and were cut with sterile blades, washed with MS-grade acetonitrile solution and submitted for Mass Spectrometry analysis at BIDMC Mass Spectrometry Core. […]
Gel separated protein samples were reduced with 55 mM DTT, alkylated with 10 mM iodoacetamide (Sigma-Aldrich), and digested O/N with TPCK modified trypsin/LysC (Promega) at pH=8.3. […] 3 μL of the digested protein samples were analyzed in positive ion mode via microcapillary tandem mass spectrometry (LC-MS/MS) using a high resolution hybrid QExactive HF Orbitrap Mass Spectrometer (Thermo Fisher Scientific) via HCD with data-dependent analysis (DDA) with 1 MS1 scan followed by 8 MS2 scans per cycle (Top 8). […]

B1: ΔTAD2 (enzyme, not shown: small tags and cut ends)
chain: MGKVNVAKLRYMSRDDFRVLTAVEMGMKNHEIVPGSLIASIASLKHGGCNKVLRELVKHKLIAWERTKTVQGYRLTRQVVESVGNQMGVGKESDIYIVANEEGQQFALKLHRLGRTSFRNLKNKRDYHKHRHNVSWLYLSRLSAMKEFAYMKALYERKFPVPKPIDYNRHAVVMELINGYPLCQIHHVEDPASVYDEAMELIVKLANHGLIHGDFNEFNLILDESDHITMIDFPQMVSTSHPNAEWYFDRDVKCIKDFFMKRFSYESELFPTFKDIRREDTLDVEVSASGYTKEMQADDELLHPLGPDDKNIETKEGSEFSFSDGEVAEKAEVYGSENESERNCLEESEGCYCRSSGDPEQIKEDSLSEESADARSFEMTEFNQALEEIKGQVVENNSVTEFSEEKNRTENYNRQDGQRVQGGVPAGSDEYEDECPHLIALSSLNREFRPFRDEENVGAMNQYRTRTLSITSSGSAVSCSTIPPELVKQKVKRQLTKQQKSAVRRRLQKGEANIFTKQRRENMQNIKSSLEAASFWGE
notes: The text defines it as N-terminal HA-tagged RIOK2 with amino acids 77-90 deleted; also called HA-ΔTAD2
Consider B1, for which the binding result was “no binding”.

(Values after patent publication US20250381241A1 (Dana-Farber, published 2025).)
